Reference: PMC12720418

Molecular target: VC1 tandem domains of the receptor for advanced glycation end-products (RAGE)
Test: ITC; 100 μM calprotectin (CP*) injected into 50 μM RAGE VC1 in the cell; 25°C; 50 mM HEPES pH 7.5, 150 mM NaCl, 10 mM CaCl2; average of three titrations, independent binding model

A Kd of 380 nM was found for “calprotectin heterodimer of S100A8 (C42S) and S100A9 (C3S) (from UniProt P05109 1-93; P06702 4-114) (complex)” in this work.
